Laboratory results reported in patent publication US20180244784A1 (published 2018).

B1: human VEGFR-2/Fc (R&D Systems) (Fc fusion)
chain: ASVGLPSVSLDLPRLSIQKDILTIKANTTLQITCRGQRDLDWLWPNNQSGSEQRVEVTECSDGLFCKTLTIPKVIGNDTGAYKCFYRETDLASVIYVYVQDYRSPFIASVSDQHGVVYITENKNKTVVIPCLGSISNLNVSLCARYPEKRFVPDGNRISWDSKKGFTIPSYMISYAGMVFCEAKINDESYQSIMYIVVVVGYRIYDVVLSPSHGIELSVGEKLVLNCTARTELNVGIDFNWEYPSSKHQHKKLVNRDLKTQSGSEMKKFLSTLTIDGVTRSDQGLYTCAASSGLMTKKNSTFVRVHEKPFVAFGSGMESLVEATVGERVRIPAKYLGYPPPEIKWYKNGIPLESNHTIKAGHVLTIMEVSERDTGNYTVILTNPISKEKQSHVVSLVVYVPPQIGEKSLISPVDSYQYGTTQTLTCTVYAIPPPHHIHWYWQLEEECANEPSQAVSVTNPYPCEEWRSVEDFQGGNKIEVNKNQFALIEGKNKTVSTLVIQAANVSALYKCEAVNKVGRGERVISFHVTRGPEITLQPDMQPTEQESVSLWCTADRSTFENLTWYKLGPQPLPIHVGELPTPVCKNLDTLWKLNATMFSNSTNDILIMELKNASLQDQGDYVCLAQDRKTKKRHCVVRQLTVLERVAPTITGNLENQTTSIGESIEVSCTASGNPPPQIMWFKDNETLVEDSGIVLKDGNRNLTIRRVRKEDEGLYTCQACSVLGCAKVEAFFIIEGAQEKTNLE
notes: also called recombinant VEGFR2/Fc; VEGFR/Fc; not shown: Fc part of the bought fusion; It was captured by goat anti-human IgG-Fc in the ELISA

What was measured:
[1] = biological target: V21H4-DOS47 with 1.4 antibodies per urease (jack bean (Canavalia ensiformis), UniProt P07374 1-840); assay: ELISA, VEGFR2/Fc captured on anti-human IgG-Fc, conjugate detected with anti-urease
[2] = biological target: V21H4-DOS47 with 9.4 antibodies per urease (jack bean (Canavalia ensiformis), UniProt P07374 1-840); assay: as above
[3] = biological target: V21H4-DOS47 with 3.3 antibodies per urease (jack bean (Canavalia ensiformis), UniProt P07374 1-840); assay: as above
[4] = biological target: T1, V21H4-DOS47 with 5.1 antibodies per urease (Canavalia ensiformis, UniProt P07374); assay: as above
T1 construct: subunit of the homohexameric enzyme

[5] = biological target: T2, V21H4-DOS47 with 8.7 antibodies per urease (Canavalia ensiformis, UniProt P07374); assay: as above
T2 construct: subunit of the homohexameric enzyme

[6] = biological target: T3, V21H4-DOS47 with 6.6 antibodies per urease (Canavalia ensiformis, UniProt P07374); assay: as above
T3 construct: subunit of the homohexameric enzyme

[7] = biological target: V21H4-DOS47 with 2.3 antibodies per urease (jack bean (Canavalia ensiformis), UniProt P07374 1-840); assay: as above
[8] = biological target: T4, V21H4-DOS47 with 7.2 antibodies per urease (Canavalia ensiformis, UniProt P07374); assay: as above
T4 construct: subunit of the homohexameric enzyme

[9] = biological target: V21H1-DOS47 (V21H1, SEQ ID NO:3, conjugated to urease through SM(PEG)2) (jack bean (Canavalia ensiformis), UniProt P07374 1-840); assay: as above
[10] = biological target: T5, V21H4-DOS47 (V21H4, SEQ ID NO:6, conjugated to urease through BM(PEG)2) (jack bean (Canavalia ensiformis), UniProt P07374 1-840); assay: as above
T5 construct: also called V21-DOS47

[11] = biological target: T6, AB2 (SEQ ID NO:13)-DOS47 antibody-urease conjugate (jack bean (Canavalia ensiformis), UniProt P07374 1-840); assay: ELISA, urease conjugates on VEGFR2/Fc
T6 construct: also called AB2-DOS47

[12] = biological target: T7, AB1m (SEQ ID NO:9)-DOS47 antibody-urease conjugate (jack bean (Canavalia ensiformis), UniProt P07374 1-840); assay: ELISA, urease conjugates on VEGFR2/Fc
T7 construct: also called AB1-DOS47

[13] = biological target: T8, AB4 (SEQ ID NO:27)-DOS47 antibody-urease conjugate (jack bean (Canavalia ensiformis), UniProt P07374 1-840); assay: ELISA, urease conjugates on VEGFR2/Fc
T8 construct: also called AB4-DOS47

[14] = biological target: T9, AB3m (SEQ ID NO:23)-DOS47 antibody-urease conjugate (jack bean (Canavalia ensiformis), UniProt P07374 1-840); assay: ELISA, urease conjugates on VEGFR2/Fc
T9 construct: also called AB3-DOS47

[15] = biological target: T10, mouse VEGFR-2/Fc (R&D Systems) (mouse, UniProt P35918 20-762); assay: SPR (Biacore 3000), immobilized mouse VEGFR-2/Fc
T10 construct: not shown: Fc part of the bought fusion, not described

[16] = biological target: B1; assay: SPR (Biacore 3000), sdAb monomer over amine-coupled human VEGFR-2/Fc, 25 C
[17] = biological target: T6, AB2 (SEQ ID NO:13)-DOS47 …; assay: ELISA, VEGFR3/Fc captured by anti-human IgG-Fc, conjugate detected with anti-urease
[18] = biological target: T7, AB1m (SEQ ID NO:9)-DOS47 …; assay: as above
[19] = biological target: T8, AB4 (SEQ ID NO:27)-DOS47 …; assay: as above
[20] = biological target: T9, AB3m (SEQ ID NO:23)-DOS47 …; assay: as above
[21] = biological target: B1; assay: ELISA, VEGFR2/Fc captured by anti-human IgG-Fc, biotin-V21H4 detected with streptavidin-AP; antibody alone, not conjugated
[22] = biological target: T11, human VEGFR2 (KDR) expressed on 293/KDR cells (human, UniProt P35968 20-1356); assay: flow cytometry on 293/KDR cells, S/N against the biotin-isotype control
[23] = biological target: B1; assay: ELISA, VEGFR2/Fc captured on anti-human IgG-Fc, biotinylated antibody detected with streptavidin-alkaline phosphatase
[24] = biological target: T11, human VEGFR2 (KDR) expressed on 293/KDR …; assay: flow cytometry on 293/KDR cells, detected with PE-streptavidin
[25] = biological target: B1; assay: SPR (Biacore 3000), sdAb monomer over amine-coupled human VEGFR-2/Fc, 25 C; constants estimated from transformed data (FIG. 3)

T10 sequence (P35918 20-762 limits assumed): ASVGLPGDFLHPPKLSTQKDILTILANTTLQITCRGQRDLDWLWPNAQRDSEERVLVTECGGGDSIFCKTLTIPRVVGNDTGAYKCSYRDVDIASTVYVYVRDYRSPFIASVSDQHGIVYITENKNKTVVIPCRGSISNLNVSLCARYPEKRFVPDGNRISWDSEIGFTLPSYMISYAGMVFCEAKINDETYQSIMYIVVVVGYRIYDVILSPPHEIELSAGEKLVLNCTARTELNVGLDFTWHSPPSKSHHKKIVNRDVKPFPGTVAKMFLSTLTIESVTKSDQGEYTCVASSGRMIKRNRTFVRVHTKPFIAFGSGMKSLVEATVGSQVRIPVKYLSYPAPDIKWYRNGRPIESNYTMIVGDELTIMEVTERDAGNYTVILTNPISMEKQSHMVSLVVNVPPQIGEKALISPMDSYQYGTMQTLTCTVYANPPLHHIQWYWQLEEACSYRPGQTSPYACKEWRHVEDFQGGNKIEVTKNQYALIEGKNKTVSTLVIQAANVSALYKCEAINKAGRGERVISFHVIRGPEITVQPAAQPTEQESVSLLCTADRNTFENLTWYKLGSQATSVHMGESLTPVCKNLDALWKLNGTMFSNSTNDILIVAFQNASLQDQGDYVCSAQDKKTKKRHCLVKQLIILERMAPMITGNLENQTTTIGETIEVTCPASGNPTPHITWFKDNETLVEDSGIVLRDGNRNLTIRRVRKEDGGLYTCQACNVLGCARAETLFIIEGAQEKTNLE
T7 sequence (VHH, as listed by the source limits assumed, chain 1 of 2): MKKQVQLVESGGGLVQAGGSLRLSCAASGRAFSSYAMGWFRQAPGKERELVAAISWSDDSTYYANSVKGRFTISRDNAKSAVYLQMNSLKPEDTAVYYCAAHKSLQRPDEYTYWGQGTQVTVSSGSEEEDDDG
T7 sequence (P07374 whole entry, chain 2 of 2): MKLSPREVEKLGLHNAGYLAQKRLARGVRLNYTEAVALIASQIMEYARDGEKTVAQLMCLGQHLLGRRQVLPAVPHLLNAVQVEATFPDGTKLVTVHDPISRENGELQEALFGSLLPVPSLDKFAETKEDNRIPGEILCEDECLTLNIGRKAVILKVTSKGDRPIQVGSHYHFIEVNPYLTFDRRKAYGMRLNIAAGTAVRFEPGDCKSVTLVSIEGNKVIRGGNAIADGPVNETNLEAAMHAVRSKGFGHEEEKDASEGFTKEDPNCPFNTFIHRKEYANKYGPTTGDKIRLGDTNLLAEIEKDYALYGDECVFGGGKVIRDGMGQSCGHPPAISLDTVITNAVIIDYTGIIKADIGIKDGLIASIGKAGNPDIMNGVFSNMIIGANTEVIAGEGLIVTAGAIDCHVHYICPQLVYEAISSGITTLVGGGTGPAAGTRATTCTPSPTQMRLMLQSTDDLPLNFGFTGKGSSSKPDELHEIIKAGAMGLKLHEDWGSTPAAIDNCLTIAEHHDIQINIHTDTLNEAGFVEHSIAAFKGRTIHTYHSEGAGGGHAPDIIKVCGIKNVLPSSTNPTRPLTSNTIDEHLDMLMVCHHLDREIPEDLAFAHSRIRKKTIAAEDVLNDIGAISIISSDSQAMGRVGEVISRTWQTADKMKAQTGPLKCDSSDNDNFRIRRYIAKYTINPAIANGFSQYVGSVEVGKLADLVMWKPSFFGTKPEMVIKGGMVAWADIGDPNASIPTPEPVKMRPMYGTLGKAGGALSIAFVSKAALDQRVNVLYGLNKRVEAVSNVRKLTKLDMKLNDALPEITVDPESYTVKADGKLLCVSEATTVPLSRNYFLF
T6 sequence (P07374 whole entry): as the sequence (P07374 whole entry, chain 2 of 2) above
T8 sequence (VHH, as listed by the source limits assumed, chain 1 of 2): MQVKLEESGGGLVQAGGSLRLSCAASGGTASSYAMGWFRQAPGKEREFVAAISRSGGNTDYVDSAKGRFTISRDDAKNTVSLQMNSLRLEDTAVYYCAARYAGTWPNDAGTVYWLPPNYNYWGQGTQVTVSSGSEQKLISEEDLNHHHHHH
T8 sequence (P07374 whole entry, chain 2 of 2): as the sequence (P07374 whole entry, chain 2 of 2) above
T9 sequence (VH, as listed by the source limits assumed, chain 1 of 2): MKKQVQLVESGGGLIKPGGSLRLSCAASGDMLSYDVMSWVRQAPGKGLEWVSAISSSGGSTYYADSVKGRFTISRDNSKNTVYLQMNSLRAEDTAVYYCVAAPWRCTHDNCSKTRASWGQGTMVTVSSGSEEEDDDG
T9 sequence (P07374 whole entry, chain 2 of 2): as the sequence (P07374 whole entry, chain 2 of 2) above
V21H1-DOS47 (V21H1, SEQ ID NO:3, conjugated to urease through SM(PEG)2), sequence (VHH, as listed by the source limits assumed, chain 1 of 2): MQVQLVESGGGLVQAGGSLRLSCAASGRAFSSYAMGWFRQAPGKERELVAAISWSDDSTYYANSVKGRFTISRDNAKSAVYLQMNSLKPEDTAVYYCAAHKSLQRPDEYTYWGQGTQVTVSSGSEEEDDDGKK
V21H1-DOS47 (V21H1, SEQ ID NO:3, conjugated to urease through SM(PEG)2), sequence (P07374 whole entry, chain 2 of 2): as the sequence (P07374 whole entry, chain 2 of 2) above
V21H4-DOS47 with 2.3 antibodies per urease, sequence (VHH, as listed by the source limits assumed, chain 1 of 2): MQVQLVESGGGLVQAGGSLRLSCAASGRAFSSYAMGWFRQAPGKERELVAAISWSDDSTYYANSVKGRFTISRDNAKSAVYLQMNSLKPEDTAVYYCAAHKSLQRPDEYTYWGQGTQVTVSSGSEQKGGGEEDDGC
V21H4-DOS47 with 2.3 antibodies per urease, sequence (P07374 whole entry, chain 2 of 2): as the sequence (P07374 whole entry, chain 2 of 2) above
T5 sequence (P07374 whole entry, chain 2 of 2): as above
T1 sequence (P07374 whole entry, chain 2 of 2): as above
T2 sequence (P07374 whole entry, chain 2 of 2): as above
T3 sequence (P07374 whole entry, chain 2 of 2): as above
V21H4-DOS47 with 3.3 antibodies per urease, sequence (P07374 whole entry, chain 2 of 2): as above
V21H4-DOS47 with 9.4 antibodies per urease, sequence (P07374 whole entry, chain 2 of 2): as above
V21H4-DOS47 with 1.4 antibodies per urease, sequence (P07374 whole entry, chain 2 of 2): as above
T4 sequence (P07374 whole entry, chain 2 of 2): as above

B1: binds [1]; binds [2]; binds [3]. B1: binds [4]; binds [5]; binds [6]. B1: binds [7]; binds [8]; binds [9]. B1: binds [10]; binds [11]; binds [12]. B1: binds [13]; binds [14].

B2: AB4 with linker 2 (SEQ ID NO:27) (VHH)
VHH: QVKLEESGGGLVQAGGSLRLSCAASGGTASSYAMGWFRQAPGKEREFVAAISRSGGNTDYVDSAKGRFTISRDDAKNTVSLQMNSLRLEDTAVYYCAARYAGTWPNDAGTVYWLPPNYNYWGQGTQVTVSS
notes: also called VR2-38; V38 with c-Myc/His6 tail
B2: no binding (tested: 150-200 nM) [15].

B3: AB3 with linker 2 (SEQ ID NO:21) (other)
VH: MQVQLVESGGGLIKPGGSLRLSCAASGDMLSYDVMSWVRQAPGKGLEWVSAISSSGGSTYYADSVKGRFTISRDNSKNTVYLQMNSLRAEDTAVYYCVAAPWRCTHDNCSKTRASWGQGTMVTVSSGSEQKLISEEDLNHHHHH
notes: also called VR2-801-45; V45 with c-Myc/His5 tail
B3 was tested, and the binding result [15] was “no binding (tested: 150-200 nM)”, the Kd [16] was 900 nM and the koff [16] was 0.045 s⁻¹. It also gave a kon [16] of 53000 M⁻¹ s⁻¹.

B4: AB2 with linker 2 (SEQ ID NO:13) (other)
VH: MQVQLVESGGGLIKPGGSLRLSCAASGFRFSAESMTWVRQAPGKGLEWVSAISSSGGSTYYADSVKGRFTISRDNSKNTVYLQMNSLRAEDTAVYYCVRSPKGCTHASCSWNSGSWGQGTLVTVSSGSEQKLISEEDLNHHHHH
notes: also called VR2-801-18; V18 with c-Myc/His5 tail
B4 was tested, and the binding result [15] was “no binding (tested: 150-200 nM)”, the Kd [16] was 500 nM and the koff [16] was 0.02 s⁻¹. The kon [16] was 46000 M⁻¹ s⁻¹.

B5: VEGFR3/Fc (R&D Systems) (Fc fusion)
chain: YSMTPPTLNITEESHVIDTGDSLSISCRGQHPLEWAWPGAQEAPATGDKDSEDTGVVRDCEGTDARPYCKVLLLHEVHANDTGSYVCYYKYIKARIEGTTAASSYVFVRDFEQPFINKPDTLLVNRKDAMWVPCLVSIPGLNVTLRSQSSVLWPDGQEVVWDDRRGMLVSTPLLHDALYLQCETTWGDQDFLSNPFLVHITGNELYDIQLLPRKSLELLVGEKLVLNCTVWAEFNSGVTFDWDYPGKQAERGKWVPERRSQQTHTELSSILTIHNVSQHDLGSYVCKANNGIQRFRESTEVIVHENPFISVEWLKGPILEATAGDELVKLPVKLAAYPPPEFQWYKDGKALSGRHSPHALVLKEVTEASTGTYTLALWNSAAGLRRNISLELVVNVPPQIHEKEASSPSIYSRHSRQALTCTAYGVPLPLSIQWHWRPWTPCKMFAQRSLRRRQQQDLMPQCRDWRAVTTQDAVNPIESLDTWTEFVEGKNKTVSKLVIQNANVSAMYKCVVSNKVGQDERLIYFYVTTIPDGFTIESKPSEELLEGQPVLLSCQADSYKYEHLRWYRLNLSTLHDAHGNPLLLDCKNVHLFATPLAASLEEVAPGARHATLSLSIPRVAPEHEGHYVCEVQDRRSHDKHCHKKYLSVQALEAPRLTQNLTDLLVNVSDSLEMQCLVAGAHAPSIVWYKDERLLEEKSGVDLADSNQKLSIQRVREEDAGRYLCSVCNAKGCVNSSASVAVEGSEDKGSMEI
notes: not shown: Fc part, captured by goat anti-human IgG-Fc; not described further
B5: no binding [17]; no binding [18]; no binding [19]. B5: no binding [20].

B6: biotin-V21H4 (biotinylated AB1 antibody, SEQ ID NO:6) (VHH)
VHH: QVQLVESGGGLVQAGGSLRLSCAASGRAFSSYAMGWFRQAPGKERELVAAISWSDDSTYYANSVKGRFTISRDNAKSAVYLQMNSLKPEDTAVYYCAAHKSLQRPDEYTYWGQGTQVTVSS
notes: also called V21H4 antibody alone; AB1C
For B6, the EC50 [21] was 1.8 nM, the “EC50 (read off the curve)” value [22] was about 2 nM and the “EC50 (read off the curve)” value [23] was about 2 nM. For the same binder, the EC50 [24] was 1.6 nM.

B7: AB1 with linker 2 (SEQ ID NO:7) (VHH)
VHH: QVQLVESGGGLVQAGGSLRLSCAASGRAFSSYAMGWFRQAPGKERELVAAISWSDDSTYYANSVKGRFTISRDNAKSAVYLQMNSLKPEDTAVYYCAAHKSLQRPDEYTYWGQGTQVTVSS
notes: also called VR2-21; V21 with c-Myc/His6 tail
In the case of B7, the binding result [15] is reported as “no binding (tested: 150-200 nM)”, the Kd [25] is reported as about 80 nM and the koff [25] is reported as under 0.01 s⁻¹. For the same binder, the kon [25] was about 60000 M⁻¹ s⁻¹.
